The data set deals with T1, LvHSF1 (rLvHSF1-GST) (Litopenaeus vannamei, UniProt X2D760 1-632).
T1 sequence: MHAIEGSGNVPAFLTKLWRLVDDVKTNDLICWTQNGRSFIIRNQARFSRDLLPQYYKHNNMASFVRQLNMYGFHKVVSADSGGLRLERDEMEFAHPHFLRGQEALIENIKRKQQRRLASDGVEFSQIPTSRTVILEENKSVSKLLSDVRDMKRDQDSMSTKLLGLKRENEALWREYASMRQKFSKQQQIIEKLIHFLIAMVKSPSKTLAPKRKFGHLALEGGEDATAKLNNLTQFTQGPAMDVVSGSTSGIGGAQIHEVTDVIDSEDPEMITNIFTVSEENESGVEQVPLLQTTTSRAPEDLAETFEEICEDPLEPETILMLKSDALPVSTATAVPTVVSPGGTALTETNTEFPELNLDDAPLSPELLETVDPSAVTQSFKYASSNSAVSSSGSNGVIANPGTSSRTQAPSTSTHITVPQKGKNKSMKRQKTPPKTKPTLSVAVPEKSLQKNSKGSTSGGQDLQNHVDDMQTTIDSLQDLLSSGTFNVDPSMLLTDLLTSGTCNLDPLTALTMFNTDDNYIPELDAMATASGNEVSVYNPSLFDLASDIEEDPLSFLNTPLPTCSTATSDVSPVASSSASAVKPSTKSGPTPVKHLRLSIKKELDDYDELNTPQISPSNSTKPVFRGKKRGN
Description: EMSA; EMSA: 10 ug recombinant protein, 20 fmol biotin probe, LightShift Chemiluminescent EMSA kit, 5% native PAGE; buffer, pH and temperature not stated. The note with it: blunt. In general terms: A gel shift assay detects complexes by their altered migration in electrophoresis.

Where [1] appears, read: chain copies: 3, label: biotin (labeled probe).

B1: SWD-Probe1 (dsDNA)
DNA 1: TACCACTAGGACTTTCTATAGAACCATCTTTGCTTCACTATAACA
DNA 2: TGTTATAGTGAAGCAAAGATGGTTCTATAGAAAGTCCTAGTGGTA
Consider B1, for which, under setting [1], the binding result is reported as “binds”.

B2: Mut-SWD-Probe1 (dsDNA)
DNA 1: TACCACTAGGACTTTCCAAACGGCCAGGTTTGCTTCACTATAACA
DNA 2: TGTTATAGTGAAGCAAACCTGGCCGTTTGGAAAGTCCTAGTGGTA
As to B2, for the setting “chain copies: 3, label: biotin”, the binding result is on record as “no binding”.

B3: SWD-Probe2 (dsDNA)
DNA 1: GTTGGGATTTCCATGATGACTTTTCGAGGAATTAGTGGCTGCGTG
DNA 2: CACGCAGCCACTAATTCCTCGAAAAGTCATCATGGAAATCCCAAC
In the case of B3, the binding result under setting [1] is “binds”.

The record behind these values is PMC13086497, “Heat shock factor regulation of antimicrobial peptides expression suggests a conserved defense mechanism induced by febrile temperature in arthropods”.
